Measurements published in article doi:10.1101/2025.03.12.642377 (bioRxiv, 2025).

Target: PACRG-mNeonGreen-6xHis (C. reinhardtii, UniProt B1B601 1-307)
Assay: pull-down

B1: FAP20-mRuby3 (His-tag cleaved) (natural protein, C. reinhardtii, UniProt A8IU92 1-190, looked up)
chain: MFKNAFQSGFLSVLYSIGSKPLEIWDKQVSNGHIKRITDADIQSSVLEIMGQNVSTTYITCPADPNKTLGIKLPFLVLIIKNLNKYFSFEVQVLDDKNVRRRFRASNYQSTTRVKPFICTMPMRLDSGWNQIQFNLSDFTRRAYGTNYIETLRVQVHANCRIRRIYFSDRLYSEEELPAEFKLFLPIQKS
- binding result: binds
